This series deals with Escherichia coli TOP10. The series is described as follows: shrunken log2 fold change of peptide-encoding DNA abundance (4.5 h post-induction vs induction); higher = less antimicrobial activity (less host growth inhibition). The conditions noted are these: time post-induction: 4.5 h; library: site-saturation at positions 5, 18, 19, 20.
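Further: peptides expressed intracellularly from a pBAD plasmid library in pooled LB shake-flask culture, induced with 0.3% L-arabinose, DNA abundance read by NGS, three biological replicates, DESeq2 with apeglm shrinkage.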

Consider RRIRRRPPRLPRPRPRPASLPRP, for which the “shrunken log2 fold change” value turned out to be 0.338. RRIRVRPPRLPRPRPRPMKTPRP: the “shrunken log2 fold change” value came to 0.00695. The same measure for RRIRHRPPRLPRPRPRPDMPPRP: 0.144. The same measure for RRIRPRPPRLPRPRPRPEIVPRP: 0.0303; for RRIRSRPPRLPRPRPRPVKCPRP: -0.0337.

Take RRIRFRPPRLPRPRPRPSWYPRP: the “shrunken log2 fold change” value was -0.401. The same measure for RRIRTRPPRLPRPRPRPFDEPRP: -0.206; for RRIRHRPPRLPRPRPRPHTIPRP: -0.0571. Under RRIRQRPPRLPRPRPRPDSDPRP stands -0.159; under RRIRERPPRLPRPRPRPGASPRP, 0.075; under RRIRARPPRLPRPRPRPTQNPRP, 1.05. Turning to RRIRFRPPRLPRPRPRPQTLPRP, the “shrunken log2 fold change” value was -0.399.

As for RRIRRRPPRLPRPRPRPEIYPRP, the “shrunken log2 fold change” value came out at 0.0166.

As for RRIRFRPPRLPRPRPRPRVPPRP, the “shrunken log2 fold change” value was found to be 0.291. In the case of RRIRSRPPRLPRPRPRPNWCPRP, the “shrunken log2 fold change” value stood at 0.0144. Under RRIRNRPPRLPRPRPRPTFSPRP stands -0.269; under RRIRNRPPRLPRPRPRPWFLPRP, -0.0768; under RRIRYRPPRLPRPRPRPGAYPRP, -0.292.

As for RRIRTRPPRLPRPRPRPQKLPRP, the “shrunken log2 fold change” value is -0.364. Consider RRIRIRPPRLPRPRPRPHTQPRP, for which the “shrunken log2 fold change” value was -0.124.

In the case of RRIRWRPPRLPRPRPRPCNYPRP, the “shrunken log2 fold change” value is -0.2. Under RRIRQRPPRLPRPRPRPSDHPRP stands -0.298. Under RRIRIRPPRLPRPRPRPQINPRP stands -0.776; under RRIRIRPPRLPRPRPRPVNLPRP, -0.116; under RRIRYRPPRLPRPRPRPHPLPRP, -0.719.

On to RRIRHRPPRLPRPRPRPALWPRP, for which the “shrunken log2 fold change” value came out at 0.701.

As for RRIRYRPPRLPRPRPRPHRNPRP, the “shrunken log2 fold change” value was -0.745. Under RRIRTRPPRLPRPRPRPDGSPRP stands 0.0485; under RRIRIRPPRLPRPRPRPAGSPRP, -0.0214. RRIRHRPPRLPRPRPRPEDWPRP: the “shrunken log2 fold change” value came out at 0.83. The same measure for RRIRARPPRLPRPRPRPIATPRP: 1.21. As to RRIRSRPPRLPRPRPRPAFKPRP, the “shrunken log2 fold change” value was -0.333. On to RRIRDRPPRLPRPRPRPVNTPRP, for which the “shrunken log2 fold change” value is -0.327. In the case of RRIRFRPPRLPRPRPRPWIDPRP, the “shrunken log2 fold change” value was -0.0232. The same measure for RRIRNRPPRLPRPRPRPLWLPRP: -0.181; for RRIRDRPPRLPRPRPRPQVFPRP: -0.101.

In the case of RRIRIRPPRLPRPRPRPDDAPRP, the “shrunken log2 fold change” value was -0.319. Consider RRIRYRPPRLPRPRPRPCSGPRP, for which the “shrunken log2 fold change” value was -0.0198.

Turning to RRIRGRPPRLPRPRPRPSIIPRP, the “shrunken log2 fold change” value is 0.211. Under RRIRRRPPRLPRPRPRPEDYPRP stands 0.252; under RRIRFRPPRLPRPRPRPVEKPRP, 0.149; under RRIRRRPPRLPRPRPRPKMLPRP, 0.161. In the case of RRIRQRPPRLPRPRPRPLNQPRP, the “shrunken log2 fold change” value is -0.155. Under RRIRERPPRLPRPRPRPMKWPRP stands -0.0404. Regarding RRIRPRPPRLPRPRPRPQNSPRP, the “shrunken log2 fold change” value is -0.469. As to RRIRTRPPRLPRPRPRPLFNPRP, the “shrunken log2 fold change” value is -0.692. Under RRIRFRPPRLPRPRPRPEKLPRP stands -0.0722. The same measure for RRIRIRPPRLPRPRPRPAPLPRP: 0.276; for RRIRGRPPRLPRPRPRPNMAPRP: 0.875. Under RRIRRRPPRLPRPRPRPSQFPRP stands 0.0893. On to RRIRKRPPRLPRPRPRPPSHPRP, for which the “shrunken log2 fold change” value was found to be 0.543. On to RRIRRRPPRLPRPRPRPFDRPRP, for which the “shrunken log2 fold change” value was 0.542.

For the sequence RRIRWRPPRLPRPRPRPHLMPRP, the “shrunken log2 fold change” value is -0.0519. Under RRIRNRPPRLPRPRPRPATGPRP stands -0.04. Under RRIRFRPPRLPRPRPRPYWAPRP stands -0.328. As for RRIRMRPPRLPRPRPRPQAKPRP, the “shrunken log2 fold change” value came to 0.0296. Under RRIRCRPPRLPRPRPRPNLTPRP stands -0.162; under RRIRQRPPRLPRPRPRPSYPPRP, -0.857; under RRIRFRPPRLPRPRPRPYCDPRP, -0.535. Under RRIRHRPPRLPRPRPRPFYHPRP stands -0.126; under RRIRVRPPRLPRPRPRPKCMPRP, 0.0847; under RRIRYRPPRLPRPRPRPEFCPRP, -0.258. Take RRIRPRPPRLPRPRPRPVDRPRP: the “shrunken log2 fold change” value was determined as 0.115. Take RRIRGRPPRLPRPRPRPKLGPRP: the “shrunken log2 fold change” value was found to be 1.12. Consider RRIRRRPPRLPRPRPRPNIEPRP, for which the “shrunken log2 fold change” value was 0.0519.

As for RRIRFRPPRLPRPRPRPQPRPRP, the “shrunken log2 fold change” value is 0.541.

Consider RRIRNRPPRLPRPRPRPKEMPRP, for which the “shrunken log2 fold change” value was -0.0529. As to RRIRPRPPRLPRPRPRPMIWPRP, the “shrunken log2 fold change” value is -0.136.

In the case of RRIRMRPPRLPRPRPRPPPKPRP, the “shrunken log2 fold change” value was 2.03.

For RRIRYRPPRLPRPRPRPTKVPRP, the “shrunken log2 fold change” value is -0.235. In the case of RRIRGRPPRLPRPRPRPHIMPRP, the “shrunken log2 fold change” value was -0.0914.

As for RRIRIRPPRLPRPRPRPEKGPRP, the “shrunken log2 fold change” value was -0.257. Turning to RRIRTRPPRLPRPRPRPVPGPRP, the “shrunken log2 fold change” value was determined as 0.151. Under RRIRIRPPRLPRPRPRPIYGPRP stands -0.000842; under RRIRTRPPRLPRPRPRPIENPRP, 0.0452. In the case of RRIRQRPPRLPRPRPRPYQFPRP, the “shrunken log2 fold change” value was -0.168. The same measure for RRIRHRPPRLPRPRPRPSGRPRP: 0.0298; for RRIRPRPPRLPRPRPRPGLCPRP: 0.399; for RRIRNRPPRLPRPRPRPYIFPRP: -0.327. Take RRIRVRPPRLPRPRPRPFKEPRP: the “shrunken log2 fold change” value turned out to be 0.121. Regarding RRIRTRPPRLPRPRPRPKGVPRP, the “shrunken log2 fold change” value stood at 0.253.

With RRIRSRPPRLPRPRPRPPHQPRP, the “shrunken log2 fold change” value is 0.27. RRIRERPPRLPRPRPRPFLKPRP: the “shrunken log2 fold change” value is -0.0233. Under RRIRFRPPRLPRPRPRPRWKPRP stands 0.217; under RRIRGRPPRLPRPRPRPNYYPRP, -0.254. Regarding RRIRVRPPRLPRPRPRPSQDPRP, the “shrunken log2 fold change” value was -0.221. Under RRIRHRPPRLPRPRPRPSIEPRP stands -0.37. On to RRIRHRPPRLPRPRPRPQCHPRP, for which the “shrunken log2 fold change” value was -0.202.

Regarding RRIRFRPPRLPRPRPRPREFPRP, the “shrunken log2 fold change” value was 0.0793.

For RRIRTRPPRLPRPRPRPFVDPRP, the “shrunken log2 fold change” value was -0.0538. For the sequence RRIRYRPPRLPRPRPRPKQRPRP, the “shrunken log2 fold change” value is -0.106.

With RRIRYRPPRLPRPRPRPQDEPRP, the “shrunken log2 fold change” value is -0.0312.

Regarding RRIRERPPRLPRPRPRPRHGPRP, the “shrunken log2 fold change” value was -0.467.

Regarding RRIRQRPPRLPRPRPRPDIHPRP, the “shrunken log2 fold change” value was -0.0439. As for RRIRHRPPRLPRPRPRPIIYPRP, the “shrunken log2 fold change” value is -0.295. On to RRIRGRPPRLPRPRPRPQDVPRP, for which the “shrunken log2 fold change” value is 0.0766.

Consider RRIRKRPPRLPRPRPRPKEYPRP, for which the “shrunken log2 fold change” value was 0.191. The same measure for RRIRQRPPRLPRPRPRPNWMPRP: 0.0507. As for RRIRYRPPRLPRPRPRPSWKPRP, the “shrunken log2 fold change” value was -0.111. With RRIRTRPPRLPRPRPRPVMPPRP, the “shrunken log2 fold change” value worked out at 0.372. The same measure for RRIRERPPRLPRPRPRPILDPRP: -0.209. For the sequence RRIRKRPPRLPRPRPRPPAEPRP, the “shrunken log2 fold change” value was determined as 1.07. As to RRIRSRPPRLPRPRPRPCWPPRP, the “shrunken log2 fold change” value worked out at 0.42. For the sequence RRIRPRPPRLPRPRPRPQWGPRP, the “shrunken log2 fold change” value turned out to be 0.132.

Consider RRIRDRPPRLPRPRPRPAQRPRP, for which the “shrunken log2 fold change” value worked out at 0.152. In the case of RRIRQRPPRLPRPRPRPKNIPRP, the “shrunken log2 fold change” value is -0.652. Under RRIRYRPPRLPRPRPRPYSPPRP stands -0.0311; under RRIRTRPPRLPRPRPRPACHPRP, 0.049; under RRIRARPPRLPRPRPRPKYGPRP, -0.0411. For RRIRPRPPRLPRPRPRPTSWPRP, the “shrunken log2 fold change” value came to 0.769. Consider RRIRRRPPRLPRPRPRPKLMPRP, for which the “shrunken log2 fold change” value came out at 0.178.

For RRIRKRPPRLPRPRPRPMSKPRP, the “shrunken log2 fold change” value was found to be 0.388. As for RRIRTRPPRLPRPRPRPEQTPRP, the “shrunken log2 fold change” value amounted to 0.303.

RRIRERPPRLPRPRPRPAAGPRP: the “shrunken log2 fold change” value turned out to be 0.315. As to RRIRWRPPRLPRPRPRPGYRPRP, the “shrunken log2 fold change” value came out at 0.0673. The same measure for RRIRYRPPRLPRPRPRPHKRPRP: -0.163; for RRIRERPPRLPRPRPRPYIQPRP: -0.184; for RRIRNRPPRLPRPRPRPFVIPRP: -0.528. Under RRIRERPPRLPRPRPRPHRDPRP stands -0.063; under RRIRCRPPRLPRPRPRPAICPRP, 0.0424; under RRIRNRPPRLPRPRPRPNPYPRP, -0.151.

Regarding RRIRHRPPRLPRPRPRPHVRPRP, the “shrunken log2 fold change” value is -0.0157. The same measure for RRIRLRPPRLPRPRPRPQYHPRP: -0.895. The same measure for RRIRSRPPRLPRPRPRPVFPPRP: -0.118; for RRIRLRPPRLPRPRPRPPFCPRP: 0.701.
